Laboratory results: PMC9008036, “Structural and molecular determinants for the interaction of ExbB from Serratia marcescens and HasB, a TonB paralog” (Communications Biology, 2022)

How the values were obtained:
[1] = target: ExbBSm, C-terminally His6-tagged (from pBADExbBSmHis6), purified alone (Serratia marcescens); assay: cryo-EM structure; purified ExbBSm-His6 alone in LMNG micelles, ca. 1 mg/mL, 20 mM Tris pH 8.0, 100 mM NaCl, 0.0015% LMNG; single-particle, C5 symmetry, 3.1 Å
[2] = target: ExbBSm, untagged, co-expressed and co-purified with ExbDSm-His6 (from pBADExbBDSmHis6) (Serratia marcescens); assay: cryo-EM structure; purified ExbBDSm complex (His6 on ExbD) in LMNG micelles, ca. 1 mg/mL, 20 mM Tris pH 8.0, 100 mM NaCl, 0.0015% LMNG; single-particle, C1, 3.96 Å
[3] = target: T1, C-terminal periplasmic domain of HasB, HasBCTD, residues 133-263 (Serratia marcescens, UniProt Q79AD1 133-263, 15N-labeled); assay: NMR titration; 1H-15N HSQC of 0.15 mM 15N-labeled HasBCTD, 50 mM sodium phosphate pH 7, 50 mM NaCl, 293 K, 600 MHz; peptide added at 2:1 and 10:1 ratios; chemical shift perturbations; settings: both partners purified
T1 construct: HasB, TonB paralog of Serratia marcescens, C-terminal periplasmic domain, residues 133-263; also called C-terminal globular domain of HasB
T1 sequence (looked up): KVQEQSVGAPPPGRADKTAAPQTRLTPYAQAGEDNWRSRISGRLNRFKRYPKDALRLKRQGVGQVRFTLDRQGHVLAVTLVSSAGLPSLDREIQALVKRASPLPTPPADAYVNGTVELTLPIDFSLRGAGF

## ExbBSm, C-terminally His6-tagged (from pBADExbBSmHis6), purified alone (natural protein)
[1]
  stoichiometry N: 5

## ExbBSm, untagged, co-expressed and co-purified with ExbDSm-His6 (from pBADExbBDSmHis6) (natural protein)
[2]
  stoichiometry N: 5

## ExbDSm, C-terminally His6-tagged (from pBADExbBDSmHis6) (natural protein)
[2]
  stoichiometry N (ExbD monomers per ExbB pentamer): 2

B1: ExbBSm 1-44 synthetic peptide (periplasmic extension of ExbBSm) (peptide)
peptide: APAANPAVTESVAPTTAPAPAAAAPESITPVNPAPTIQPPETRG
notes: ExbB of Serratia marcescens Db11 (SMDB11_3480), periplasmic N-terminal extension, residues 1-44. numbers count on: the mature protein; also called periplasmic peptide of ExbBSm residues 1-44; periplasmic fragment of ExbBSm; source: synthetic peptide (Proteogenix)
[3]
  binding result: binds
